B1: HDV Ribozyme (parent)
chain: GGCCGGCAUGGUCCCAGCCUCCUCGCUGGCGCCGGCUGGGCAACAUUCCGAGGGGACCGUCCCCUCGGUAAUGGCGAAUGGGACCCA

Variants of: B1
Assay: self-cleavage, relative activity (ratio to wild type); higher = more cleavage; co-transcriptional

In order of falling self-cleavage:
1. U37C U60A  1.27
2. C48A A56G  1.2
3. G53A C86A  1.16
4. U9G C85U  1.14
5. C15U A71G  1.14
6. C57G U65A  1.11
7. G53U A70G  1.08
8. C26G U47G  1.08
9. A70U G76U  1.07
10. C7A G31U  1.07
11. C58A U69A  1.07
12. C26A A56C  1.06
13. G52A G59C  1.05
14. A70C A87U  1.04
15. C48G A71C  1.03
16. A8U G59C  1.02
17. C26U A87U  1
18. U9A U47C  0.997
19. C49A C58G  0.988
20. G54U G76A  0.981
21. A45C U69G  0.974
22. C44A C63U  0.973
23. U46C G59U  0.962
24. G67C C85G  0.96
25. C26G U47C  0.95
26. G39U C63U  0.915
27. U47C  0.906
28. C26G G40U  0.9
29. G54U C61G  0.889
30. G40A A56C  0.878
31. G40A G59C  0.831
32. G39U A70U  0.831
33. U23A C63A  0.812
34. A56U U79G  0.787
35. G10U  0.776
36. U65G G68A  0.772
37. G54C A70C  0.755
38. G54C U79A  0.755
39. C3G U65G  0.751
40. C49A U60A  0.745
41. C3G C84U  0.736
42. G17A C57U  0.727
43. A45U G52U  0.674
44. U46A G59U  0.674
45. C26U U79C  0.671
46. G74A C85A  0.657
47. G55C A77U  0.65
48. C41A C85A  0.636
49. C48G G52U  0.612
50. G10A U23A  0.596
51. C57G U72C  0.587
52. U72G A83G  0.58
53. A43U C86A  0.554
54. G81C C86A  0.554
55. A56C G73C  0.536
56. C22U G50U  0.521
57. A42G A56G  0.516
58. A43C C62U  0.508
59. C13U A71U  0.494
60. G40U G76C  0.492
61. C63A G82U  0.467
62. G6U U23A  0.466
63. C36U C61G  0.466
64. G39A A51G  0.458
65. G74U G76A  0.453
66. C14G G68A  0.431
67. G35U C57G  0.415
68. C24A A56G  0.404
69. G35U C64G  0.403
70. C14G U47G  0.383
71. G40U C84A  0.383
72. C14U A83U  0.378
73. C33U A71C  0.374
74. G38U G53A  0.369
75. G10C G39C  0.359
76. C41A A83U  0.35
77. G1C A43C  0.332
78. A8U G73A  0.323
79. A45U C75U  0.321
80. C62A C66A  0.32
81. C18U G40U  0.314
82. A42G C84G  0.314
83. G11U C66A  0.31
84. G11U G17U  0.308
85. G17U U69A  0.306
86. C64G G80C  0.305
87. G1U G29C  0.292
88. A77U C84A  0.291
89. G74C A87G  0.291
90. G34C C58G  0.287
91. C33U G74A  0.277
92. C44G G81U  0.271
93. G25A U65G  0.269
94. C63A A78U  0.269
95. C33A G53A  0.264
96. C14A C75G  0.256
97. C19G C26U  0.249
98. A16U G73U  0.237
99. G25U U65C  0.237
100. U9A G73C  0.227
101. C33G U60G  0.217
102. C32A C66G  0.213
103. A8U U12A  0.208
104. G34A A45G  0.199
105. G25A G55A  0.193
106. C21G U47G  0.185
107. G74C G76C  0.185
108. G31U A71U  0.181
109. G25A C41G  0.177
110. A71U G80A  0.175
111. A43C C75U  0.172
112. G6A C75A  0.17
113. C7G G55U  0.17
114. A8G A78C  0.166
115. G29U A71G  0.162
116. G17U A45C  0.161
117. C14U A78U  0.156
118. C14G C75U  0.155
119. C32A C62A  0.151
120. G11U C62G  0.151
121. G31C A78U  0.148
122. C24G C48U  0.14
123. C4A C84G  0.138
124. C4A G38A  0.133
125. A77C G81U  0.116
126. C19A C32G  0.116
127. G28A C49A  0.111
128. G17C C75G  0.111
129. C21A A56G  0.109
130. C22U G35A  0.109
131. G25C C58A  0.104
132. C18U G25A  0.104
133. G1A G68A  0.101
134. C19U G81C  0.101
135. G29A G54A  0.0989
136. U12G G38A  0.0978
137. C7U G29A  0.0906
138. C15G C19U  0.0898
139. G10U C24G  0.0886
140. G38A G73A  0.0875
141. U20A G39U  0.0852
142. C36A U37A  0.0831
143. G38U C84U  0.0821
144. C18A G81U  0.0817
145. G2U A51U  0.0799
146. U47C C75U  0.0791
147. C21A G68A  0.0779
148. C13A C18G  0.0773
149. C18A G39C  0.0755
150. C21G G29C  0.0707
151. U20A G28C  0.0573
152. G73C C75G  0.0573
153. C14G C75G  0.0554
154. U27C C32A  0.0519
155. G17C C19A  0.0519
156. C21A C63U  0.0462
157. C19G A77G  0.0426
158. C14A U37A  0.0405
159. C32G U46A  0.0332
160. C13A C44G  0
161. C15G G38A  0
162. U12C G81U  0
163. G5U G74U  0
164. U20A G67C  0
165. G17C C18G  0
166. G5C C75U  0
167. G28A U47A  0

— the RNAGym collection of RNA variant scans (doi:10.7554/elife.80360)
